Laboratory results published in US10533038B2, “Methods of reducing TDP-43-mediated neuronal cytotoxicity in amyotrophic lateral sclerosis by a UPF1 polypeptide or polynucleotide” (Brandeis University, priority 2012, dated 2020).
Entries after “also recorded” stand apart in the source; their conditions may differ.

B1: UPF1: protein involved in nonsense-mediated mRNA decay (NMD), expressed in neurons; amino acid sequence SEQ ID NO: 2 (protein, listed as Homo sapiens)
chain: MSVEAYGPSSQTLTFLDTEEAELLGADTQGSEFEFTDFTLPSQTQTPPGGPGGPGGGGAGSPGGAGAGAAAGQLDAQVGPEGILQNGAVDDSVAKTSQLLAELNFEEDEEDTYYTKDLPIHACSYCGIHDPACVVYCNTSKKWFCNGRGNTSGSHIVNHLVRAKCKEVTLHKDGPLGETVLECYNCGCRNVFLLGFIPAKADSVVVLLCRQPCASQSSLKDINWDSSQWQPLIQDRCFLSWLVKIPSEQEQLRARQITAQQINKLEELWKENPSATLEDLEKPGVDEEPQHVLLRYEDAYQYQNIFGPLVKLEADYDKKLKESQTQDNITVRWDLGLNKKRIAYFTLPKTDSDMRLMQGDEICLRYKGDLAPLWKGIGHVIKVPDNYGDEIAIELRSSVGAPVEVTHNFQVDFVWKSTSFDRMQSALKTFAVDETSVSGYIYHKLLGHEVEDVITKCQLPKRFTAQGLPDLNHSQVYAVKTVLQRPLSLIQGPPGTGKTVTSATIVYHLARQGNGPVLVCAPSNIAVDQLTEKIHQTGLKVVRLCAKSREAIDSPVSFLALHNQIRNMDSMPELQKLQQLKDETGELSSADEKRYRALKRTAERELLMNADVICCTCVGAGDPRLAKMQFRSILIDESTQATEPECMVPVVLGAKQLILVGDHCQLGPVVMCKKAAKAGLSQSLFERLVVLGIRPIRLQVQYRMHPALSAFPSNIFYEGSLQNGVTAADRVKKGFDFQWPQPDKPMFFYVTQGQEEIASSGTSYLNRTEAANVEKITTKLLKAGAKPDQIGIITPYEGQRSYLVQYMQFSGSLHTKLYQEVEIASVDAFQGREKDFIILSCVRANEHQGIGFLNDPRRLNVALTRARYGVIIVGNPKALSKQPLWNHLLNYYKEQKVLVEGPLNNLRESLMQFSKPRKLVNTINPGARFMTTAMYDAREAIIPGSVYDRSSQGRPSSMYFQTHDQIGMISAGPSHVAAMNIPIPFNLVMPPMPPPGYFGQANGPAAGRGTPKGKTGRGGRQKNRFGLPGPSQTNLPNSQASQDVASQPFSQGALTQGYISMSQPSQMSQPGLSQPELSQDSYLGDEFKSQIDVALSQDSTYQGERAYQHGGVTGLSQY

Legend:
ALS patients = conditions: some ALS patients; cited from earlier work
TDP-43 = assay: Cytoplasmic level of TDP-43 in neuronal cells expressing UPF1; format: cell-based; conditions: expression of UPF1
Description: (§1) The present invention encompasses the surprising finding that NMD agents are useful, among other things, in the treatment or prevention (i.e., delay of onset) of ALS. […] Accordingly, in some embodiments, an NMD agent is provided to the central nervous system of a subject, e.g., a subject suffering from or susceptible to ALS. In some embodiments, an NMD agent is provided to one or more of target cells or tissues of brain, spinal cord, and/or peripheral organs. In some embodiments, target cells or tissues include those cells or tissues that display a disease-associated pathology, symptom, or feature. In some embodiments, target cells or tissues include those cells or tissues in which TDP-43 or FUS/TLS is expressed at an elevated level, e.g., cells in which TDP-43 or FUS/TLS is expressed at an elevated level in the cytoplasm of the cells. As used herein, a target tissue may be a brain target tissue, a spinal cord target tissue and/or a peripheral target tissue.

[1] = test system: ALS-associated TDP-43 mutations in yeast; assay: Yeast model of ALS: suppression of cytotoxicity of TDP-43 mutations; format: cell-based
[2] = test system: motor neurons expressing FUS; assay: Survival of motor neurons expressing disease-associated FUS and UPF1; format: cell-based, mice or human; conditions: UPF1 expressed in cells expressing FUS; data not shown
Description: (§2) To test the efficacy of UPF1 in reducing TDP-43 or FUS-mediated cytotoxicity in neurons, UPF1 was expressed in motor neurons expressing disease-associated FUS or TDP-43. Motor neurons were either isolated from mice or created from fibroblasts taken from human ALS patients using iPS cell techniques (described in Yamanaka et al., Cell 126:663-676 (2006)). FUS or TDP-43 were tagged with EGFP (Enhanced Green Fluorescent Protein) and expressed in motor neurons, which were visualized by fluorescent microscopy using mApple.
(§3) The motor neurons died within a few days of FUS or TDP-43 expression due to toxicity of these ALS-related proteins. UPF1 was expressed in the motor neurons and Kaplan-Meyer survival curves were determined.

FUS/TLS = assay: Cytoplasmic level of FUS/TLS in neuronal cells expressing UPF1; format: cell-based; conditions: expression of UPF1
Description: as §1

[3] = test system: ALS-associated mutants of SOD1; assay: Rescue of toxicity of ALS-associated mutants of SOD1 by UPF1 expression; format: cell-based
[4] = test system: motor neurons expressing TDP-43; assay: Kaplan-Meyer survival of motor neurons expressing disease-associated TDP-43 and UPF1; format: cell-based, mice or human; conditions: UPF1 expressed in motor neurons expressing EGFP-tagged TDP-43; FIG. 1B
Description: as §2, §3

[5] = test system: FUS/TLS toxicity in yeast; conditions: yeast model of ALS; Ju et al., PLoS Biol. 2011; cited from earlier work
wild type neurons = assay: Kaplan-Meyer survival of wild type motor neurons expressing UPF1; format: cell-based, mice or human; conditions: UPF1 expression in motor neurons; FIG. 1A
Description: as §2, §3

Molecule | extension of lifespan of ALS patients (ALS patients) | cytoplasmic levels of TDP-43 in the neuronal cells (TDP-43) | cytotoxicity of ALS-associated TDP-43 mutations in yeast [1] | toxicity of FUS in motor neurons [2] | cytoplasmic levels of FUS/TLS in the neuronal cells (FUS/TLS) | rescue of toxicity of ALS-associated mutants of SOD1 [3] | toxicity of TDP-43 in motor neurons [4] | toxicity of FUS/TLS in yeast [5] | effect on survival of wild type neurons (wild type neurons)
Nc1nc2ccc(OC(F)(F)F)cc2s1 [riluzole] | about 3 months |  |  |  |  |  |  |  | 
B1 |  | no effect | able to suppress the cytotoxicity | reduces cellular toxicity | no effect | unable to rescue | reduces cellular toxicity; also recorded: completely eliminate the toxicity of TDP-43 in a dose-dependent manner | able to rescue toxicity; also recorded: suppressed toxicity | no effect
